In the supplement of paper PMC7877785:
± gives the uncertainty stated by the source.

Test: self-splicing fitness, log relative to wild type (ln ratio); higher = more splicing; Tetrahymena group I intron in knt gene, E. coli kanamycin selection, DiMSum; sequences stand for … in CUCUCU…GGAGGGAAAAGUUAUCAGGCAUGCACCUGGUAGCUAGUCUUUAAACCAAUAGAUUGCAUCGGUUUAAAAGGCAAGACCGUCAAAUUGCGGGAAAGGGGUCAACAGCCGUUCAGUACCAAGUCUCAGGGGAAACUUUGAGAUGGCCUUGCAAAGGGUAUGGUAAUAAGCUGACGGACAUGGUCCUAACCACGCAGCCAAGUCCUAAGUCAACAGAUCUUCUGUUGAUAUGGAUGCAGUUCACAGACUAAAUGUCGGUCGGGGAAGAUGUAUUCUUCUCAUAAGAUAUAGUCGGACCUCUCCUUAAUGGGAGCUAGCGGAUGAAGUGAUGCAACACUGGAGCCGCUGGGAACUAAUUUGUAUGCGAAAGUAUAUUGAUUAGUUUUGGAGUACUCGUGGUCG
How it was run: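 Library with all eight P1ex-region intron nucleotides randomised, intron inside the knt kanamycin-resistance gene on pET-22b(+), in E. coli BL21(DE3). Cells grew overnight at 37°C or 30°C on LB agar with or without 25 μg/mL kanamycin (plus 100 μg/mL carbenicillin, 50 μM IPTG, 0.2% rhamnose), in six replicate transformations. Pooled colonies were amplicon-sequenced on Illumina HiSeq 2500. DiMSum fitness is the error-weighted combination of wild-type-normalised replicate fold changes, kanamycin versus none.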

Row | Sequence | self-splicing fitness (ln) (30 °C) | self-splicing fitness (ln) (37 °C)
1 | CUAAAGCAAUAUUACGACGG | -0.113 ± 0.051 | 0.466 ± 0.082
2 | CUAAAGCAAUAUUACGAGUC | -4.51 ± 0.3 | -2.96 ± 0.31
3 | CUAAAGCAAUAUUACGAUAC |  | -2.32 ± 0.31
4 | CUAAAGCAAUAUUACGCAGG | -0.529 ± 0.12 | -1.09 ± 0.19
5 | CUAAAGCAAUAUUACGCAGU | -3.13 ± 0.31 | -3.43 ± 0.32
6 | CUAAAGCAAUAUUACGCCAU | -3.34 ± 0.33 | -1.36 ± 0.27
7 | CUAAAGCAAUAUUACGCCGG | -0.951 ± 0.16 | -0.177 ± 0.18
8 | CUAAAGCAAUAUUACGCCGU | -3.75 ± 0.27 | -2.39 ± 0.25
9 | CUAAAGCAAUAUUACGCUUC | -3.03 ± 0.22 | 
10 | CUAAAGCAAUAUUACGGAAG | -0.274 ± 0.062 | 0.0341 ± 0.083
11 | CUAAAGCAAUAUUACGGAUA | -3.45 ± 0.19 | -2.36 ± 0.2
12 | CUAAAGCAAUAUUACGGCAA | -3.27 ± 0.18 | -1.35 ± 0.15
13 | CUAAAGCAAUAUUACGGUCU | -3.74 ± 0.21 | -3.69 ± 0.29
14 | CUAAAGCAAUAUUACGUACU | -3.28 ± 0.17 | -2.57 ± 0.22
15 | CUAAAGCAAUAUUACGUCAC | -2.66 ± 0.14 | -2.62 ± 0.22
16 | CUAAAGCAAUAUUACGUGGA | -3.7 ± 0.2 | -2.64 ± 0.19
17 | CUAAAGCAAUAUUACGUUGG | -2.52 ± 0.12 | -0.891 ± 0.1
18 | CUAAAGCAAUAUUACGUUGU | -3.91 ± 0.12 | -3.06 ± 0.15
19 | CUAAAGCAAUAUUACGUUUC | -3.78 ± 0.18 | -2.69 ± 0.23
20 | CUACAGCAAUAUUACGACGC | -3.16 ± 0.34 | -2.08 ± 0.27
21 | CUACAGCAAUAUUACGAGUA | -3.39 ± 0.18 | -1.71 ± 0.12
22 | CUACAGCAAUAUUACGCACG | -0.609 ± 0.07 | 0.378 ± 0.08
23 | CUACAGCAAUAUUACGCAGC | -2.28 ± 0.24 | -1.75 ± 0.36
24 | CUACAGCAAUAUUACGCCUG | -1.43 ± 0.1 | -0.209 ± 0.097
25 | CUACAGCAAUAUUACGCUCC | -3.45 ± 0.24 | -2.11 ± 0.32

Row | Sequence | self-splicing fitness (ln) (30 °C) | self-splicing fitness (ln) (37 °C)
26 | CUACAGCAAUAUUACGGCGC | -3.96 ± 0.29 | -1.68 ± 0.39
27 | CUACAGCAAUAUUACGGCGG | -1.34 ± 0.084 | -1.47 ± 0.094
28 | CUACAGCAAUAUUACGGGGG | -3.39 ± 0.2 | -2.26 ± 0.15
29 | CUACAGCAAUAUUACGUAGC | -3.76 ± 0.26 | -2.54 ± 0.33
30 | CUACAGCAAUAUUACGUUUC | -3.69 ± 0.16 | -2.7 ± 0.21
31 | CUAGAGCAAUAUUACGAAGA | -3.61 ± 0.28 | -1.94 ± 0.43
32 | CUAGAGCAAUAUUACGAAGU | -2.56 ± 0.26 | 
33 | CUAGAGCAAUAUUACGACCA | -2.61 ± 0.23 | -1.15 ± 0.28
34 | CUAGAGCAAUAUUACGACUG | 0.0552 ± 0.11 | -0.585 ± 0.14
35 | CUAGAGCAAUAUUACGAGAU | -3.54 ± 0.17 | -1.67 ± 0.15
36 | CUAGAGCAAUAUUACGAUAA | -2.85 ± 0.21 | -1.3 ± 0.23
37 | CUAGAGCAAUAUUACGAUUA | -2.49 ± 0.23 | -2.26 ± 0.23
38 | CUAGAGCAAUAUUACGCCAG | -0.97 ± 0.1 | -0.759 ± 0.21
39 | CUAGAGCAAUAUUACGCCUC | -3.5 ± 0.2 | -2.88 ± 0.34
40 | CUAGAGCAAUAUUACGCGAG | -0.514 ± 0.11 | 0.0831 ± 0.13
41 | CUAGAGCAAUAUUACGCGGU | -1.42 ± 0.092 | -0.641 ± 0.13
42 | CUAGAGCAAUAUUACGCUGG |  | -2.1 ± 0.33
43 | CUAGAGCAAUAUUACGGAUG | -0.4 ± 0.095 | 0.311 ± 0.11
44 | CUAGAGCAAUAUUACGGCAC |  | -0.856 ± 0.49
45 | CUAGAGCAAUAUUACGGCUA | -3.41 ± 0.31 | -1.17 ± 0.21
46 | CUAGAGCAAUAUUACGGUGC | -3.31 ± 0.26 | -2.32 ± 0.37
47 | CUAGAGCAAUAUUACGGUGU | -4.1 ± 0.19 | -2.92 ± 0.27
48 | CUAGAGCAAUAUUACGUAAA | -3.81 ± 0.24 | -1.84 ± 0.25
49 | CUAGAGCAAUAUUACGUCAC | -3.34 ± 0.36 | -1.72 ± 0.29
